This experiment has as its target mCherry-LacR-CSB-ATPase. Nature of the experiment: immunofluorescence co-localisation at the lac operator array (mCherry-LacR tethering) in U2OS-265 cells. Particulars: 250 Myc-expressing cells scored per experiment; three independent experiments; parent: est. 28; read off a plot.
With Myc-CSB-N S10A, the response was 21 % of cells.
Myc-CSB-N S10A; S158A: the response was 17 % of cells.
Then Myc-CSB-N S10D, with 32 % of cells.
With Myc-CSB-N S10D; S158D, the response is 30 % of cells.
For the substance Myc-CSB-N S158A, the response was 18 % of cells.
The result for Myc-CSB-N S158D reads 28 % of cells.

The values above are taken from publication PMC5715124.
